No end group written: not given here.
How the values were obtained:
[1] = biological target: T1, CPP32, bacterially expressed recombinant active enzyme (human, UniProt P42574 29-277, limits assumed); assay: inhibition of hydrolysis of 10 µM DEVD-AMC, continuous fluorometric assay, bacterial lysate, 30 min preincubation
T1 construct: Bacterially expressed (as a GST fusion, as described for Mch3) and used as bacterial lysate; also called recombinant CPP32
T1 sequence (looked up): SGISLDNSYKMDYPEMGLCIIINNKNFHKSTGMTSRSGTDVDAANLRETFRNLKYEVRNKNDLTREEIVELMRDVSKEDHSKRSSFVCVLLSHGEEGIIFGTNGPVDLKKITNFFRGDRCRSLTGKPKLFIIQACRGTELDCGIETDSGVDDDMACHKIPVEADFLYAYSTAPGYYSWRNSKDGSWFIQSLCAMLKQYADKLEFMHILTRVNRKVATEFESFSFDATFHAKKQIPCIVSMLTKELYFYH

[2] = biological target: T2, Mch3α, bacterially expressed recombinant active enzyme (human, UniProt P55210 24-303, limits assumed); assay: inhibition of hydrolysis of 50 µM DEVD-AMC, continuous fluorometric assay, bacterial lysate, 30 min preincubation
T2 construct: Expressed in E. coli as a GST fusion (Mch3α1 or Mch3α2); also called recombinant Mch3α
T2 sequence: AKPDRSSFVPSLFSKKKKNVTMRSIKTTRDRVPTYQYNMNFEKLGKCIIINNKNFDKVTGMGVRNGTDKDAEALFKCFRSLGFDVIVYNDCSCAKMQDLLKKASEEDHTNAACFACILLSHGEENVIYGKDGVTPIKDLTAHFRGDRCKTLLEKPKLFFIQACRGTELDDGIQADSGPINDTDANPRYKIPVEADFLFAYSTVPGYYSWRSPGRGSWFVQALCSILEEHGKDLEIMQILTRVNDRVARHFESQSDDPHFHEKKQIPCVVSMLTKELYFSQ

Ki [1]: 0.59 nM | Ki [2]: 1.8 nM
B1: tetrapeptide DEVD aldehyde (peptide)
peptide: DEVD-aldehyde
notes: also called DEVD-CHO
